For data set [1], the target named is T1, His6-BfmR (Pseudomonas aeruginosa MPAO1) (UniProt Q9HWS7).
T1 sequence: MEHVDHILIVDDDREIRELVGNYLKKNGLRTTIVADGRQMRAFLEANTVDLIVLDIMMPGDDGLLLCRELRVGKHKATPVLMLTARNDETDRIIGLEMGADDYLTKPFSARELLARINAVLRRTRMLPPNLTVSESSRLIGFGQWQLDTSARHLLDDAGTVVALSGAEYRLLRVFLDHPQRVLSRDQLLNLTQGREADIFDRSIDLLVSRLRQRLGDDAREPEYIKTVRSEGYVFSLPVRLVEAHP
Put plainly: EMSA. The note with it: 10 mM Tris-Cl pH 8.0, 1 mM DTT, 10% glycerol, 5 mM MgCl2, 10 mM KCl, 50 mM acetyl phosphate; EMSA 30 min at 37 C; footprinting 30 min at room temperature. In general terms: Mobility shift assays separate free from complexed probe on a gel.

Data set [2] concerns the target T1, His6-BfmR (Pseudomonas aeruginosa MPAO1). Put plainly: DNase I footprinting. The note with it: 10 mM Tris-Cl pH 8.0, 1 mM DTT, 10% glycerol, 5 mM MgCl2, 10 mM KCl, 50 mM acetyl phosphate; EMSA 30 min at 37 C; footprinting 30 min at room temperature.

Turning to “GAATATCCGAAAGCCAGACGGTTATCGGCAGAAACTCTTGGTTTTCATTGCAGTCATGCAATCTTCGCAAGGTTGCCGCAATATATGAAACAAACTGTTACATCTGTCGCCCGGACCTGATGCCTCTAGGCCTGCGCCCTTATCCGACGGCCTCATCCAGGCGCTATCCGGCTGCCTGTCACAAAAGCTTTCGCGCTTTGCAGTCTCGCTGTCACAACCCATCCAGATGATCCCCCTCCAGCAGCGCCGGCCGGCGACAGAACCGGCCGTTTCCGCGCTGCTCAAGA (double strand) [oprP promoter]”, the binding result in data set [1] and in data set [2] was “binds” each time.

These data come from PMC8025907.
